# Measured values: patent US20040157296A1 (HESKA, published 2004)
# T1: Human CTLA4 Fc chimeric protein (human, UniProt P16410 37-162, limits assumed)
# T1 construct: Bought from R&D Systems; Used at about 20 ug/ml; also called recombinant CTLA4 protein; not shown: human IgG Fc (detected with mouse anti human IgG Fc FITC)
# T1 sequence (looked up): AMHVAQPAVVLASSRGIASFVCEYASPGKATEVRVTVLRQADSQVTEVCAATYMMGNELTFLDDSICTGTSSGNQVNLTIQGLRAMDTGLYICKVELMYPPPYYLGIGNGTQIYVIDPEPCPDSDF
# B1: feline B7-2 protein expressed on L-pCMV-nFeB7-2999 recombinant L cells (PFeB7-2332) (ligand)
# chain: VSSMKSQAYFNKTGELPCHFTNSQNISLDELVVFWQDQDKLVLYEIFRGKENPQNVHLKYKGRTSFDKDNWTLRLHNVQIKDKGTYHCFIHYKGPKGLVPMHQMSSDLSVLANFSQPEITVTSNRTENSGIINLTCSSIQGYPEPKEMYFQLNTENSTTKYDTVMKKSQNNVTELYNVSISLPFSVPEAHNVSVFCALKLETLEMLLSLPFNIDAQPKDKDPEQGHFLWIAAVLVMFVVFCGMVSFKTLRKRKKKQPGPSHECETIKRERKESKQTNERVPYHVPERSDEAQCINILKTASGDKSTTHF
# notes: also called PFeB7-2309 (mature)
# Target: T1, Human CTLA4 Fc chimeric protein
# Experiment: flow cytometry on L cell transfectants
# Protocol: Recombinant cells L-pCMV-nFeB7-2₉₉₉, and L-pCMV-nFeB7-1₈₇₉, produced as described in Example 8, were tested for surface expression of feline B7-1 or B7-2 by determining if human CTLA4 will bind. Briefly, 1×10⁵ (per condition) L-pCMV-nFeB7-2₉₉₉ or L-pCMV-nFeB7-1₈₇₉ cells or, as a negative control, L cells transfected with the empty pCMV vector and the PMLBKTK plasmid (L-CMV) were incubated in phosphate buffered saline (PBS) containing 30% fetal bovine serum (FBS) for about 30 min on ice. The cells were then spun down and treated with the following:
# Human CTLA4 Fc chimeric protein, available from R&D systems, Minneapolis, Minn., was used at about 20 μg/ml. Mouse anti human IgG Fe FITC, available from Sigma, was used at about 65 μg/ml. These reagents were diluted in PBS/5% FBS. All incubations were performed in about 100 μl for about 1 hr on ice with 3 washes of PBS/5% FBS in between each incubation. Cells were then analyzed on a flow cytometer (MoFlow Desk Top System, Cytomation, Ft Collins, Colo.) with the fluorescein gate set at 10¹.
binder,measurement,value
B1,binding result,binds
